One block for each molecule: values may come before it.
Legend:
FcRn = FcRn (UniProt P55899); assay: Biacore; FcRn directly immobilized; response at end of injection normalised to the standard
FcγRI [1] = assay: Biacore; FcγR captured through anti-His antibody; response at end of injection normalised to the standard
FcγRIIIa V158 = FcγRIIIa V158 (UniProt P08637); assay: as above
FcγRI [2] = biological target: FcγRI (UniProt P12314); assay: as above
Flt3 receptor (human) = Flt3 receptor (human) (UniProt P36888); assay: cell-based or functional assay
Flt3 receptor (human), sequence (P36888 27-993): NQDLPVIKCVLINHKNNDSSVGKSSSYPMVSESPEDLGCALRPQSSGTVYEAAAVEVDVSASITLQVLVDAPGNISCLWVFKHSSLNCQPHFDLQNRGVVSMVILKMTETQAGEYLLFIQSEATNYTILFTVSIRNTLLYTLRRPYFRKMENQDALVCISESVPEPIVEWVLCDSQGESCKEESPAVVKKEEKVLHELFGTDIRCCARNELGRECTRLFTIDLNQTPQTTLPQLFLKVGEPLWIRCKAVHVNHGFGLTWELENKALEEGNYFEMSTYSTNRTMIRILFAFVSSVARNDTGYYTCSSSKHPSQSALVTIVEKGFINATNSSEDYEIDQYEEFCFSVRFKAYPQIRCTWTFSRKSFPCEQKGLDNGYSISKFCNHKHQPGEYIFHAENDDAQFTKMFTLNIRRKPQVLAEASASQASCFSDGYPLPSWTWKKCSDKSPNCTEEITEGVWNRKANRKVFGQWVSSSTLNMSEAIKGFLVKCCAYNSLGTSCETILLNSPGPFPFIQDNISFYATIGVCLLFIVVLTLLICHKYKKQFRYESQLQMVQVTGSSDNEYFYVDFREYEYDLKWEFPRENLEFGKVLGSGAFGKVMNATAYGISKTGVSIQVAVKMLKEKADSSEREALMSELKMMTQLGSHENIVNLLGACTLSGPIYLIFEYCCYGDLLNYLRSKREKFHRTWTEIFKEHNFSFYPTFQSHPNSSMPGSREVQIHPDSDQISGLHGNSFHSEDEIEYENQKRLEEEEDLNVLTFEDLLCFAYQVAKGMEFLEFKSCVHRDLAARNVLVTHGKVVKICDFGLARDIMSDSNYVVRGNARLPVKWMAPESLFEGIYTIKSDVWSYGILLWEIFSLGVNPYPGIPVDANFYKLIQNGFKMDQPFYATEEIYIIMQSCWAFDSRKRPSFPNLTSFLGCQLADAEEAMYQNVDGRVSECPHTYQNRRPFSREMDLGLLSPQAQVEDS

FcγRI (UniProt P12314), sequence (P12314 16-288 limits assumed): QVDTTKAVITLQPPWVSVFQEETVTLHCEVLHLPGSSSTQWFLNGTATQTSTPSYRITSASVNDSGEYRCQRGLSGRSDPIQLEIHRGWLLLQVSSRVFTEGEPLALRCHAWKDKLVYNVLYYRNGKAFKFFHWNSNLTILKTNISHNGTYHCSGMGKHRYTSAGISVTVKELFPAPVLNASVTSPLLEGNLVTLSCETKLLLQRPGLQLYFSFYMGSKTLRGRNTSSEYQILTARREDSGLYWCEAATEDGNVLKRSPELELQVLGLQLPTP
FcγRIIIa V158, sequence (P08637 17-208 F176V limits assumed): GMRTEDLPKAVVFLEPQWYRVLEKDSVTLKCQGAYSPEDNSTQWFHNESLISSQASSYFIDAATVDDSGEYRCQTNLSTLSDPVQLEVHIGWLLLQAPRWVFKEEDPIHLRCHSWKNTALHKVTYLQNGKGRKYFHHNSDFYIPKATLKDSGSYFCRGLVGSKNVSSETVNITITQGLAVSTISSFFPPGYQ
FcRn, sequence (P55899 24-297 limits assumed, form in doubt): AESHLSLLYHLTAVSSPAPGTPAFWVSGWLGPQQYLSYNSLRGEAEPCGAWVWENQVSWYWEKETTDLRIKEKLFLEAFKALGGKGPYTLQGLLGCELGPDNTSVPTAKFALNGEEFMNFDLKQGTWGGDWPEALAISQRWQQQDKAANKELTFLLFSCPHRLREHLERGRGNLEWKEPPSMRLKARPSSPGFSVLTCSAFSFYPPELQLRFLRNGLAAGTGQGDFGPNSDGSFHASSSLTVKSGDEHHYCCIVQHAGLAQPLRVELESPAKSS

Molecule: anti-CD20 antibody (ocrelizumab variable domains) with IgG1 NG constant region
- relative binding level (%) at 10 ug/ml (FcRn): 86.7%
- relative binding level (%) at 10 ug/ml (FcγRI [1]): 0.06%
- relative binding level (%) at 10 ug/ml (FcγRIIIa V158): 2.12%
- relative binding level (%) at 10 ug/ml (FcγRI [2]): 4.5%

B1: anti-CD20 antibody (ocrelizumab variable domains) with IgG2 wildtype constant region (antibody, part only; not given: ocrelizumab variable domains, not shown: another chain or arm of the molecule)
constant: ASTKGPSVFPLAPCSRSTSESTAALGCLVKDYFPEPVTVSWNSGALTSGVHTFPAVLQSSGLYSLSSVVTVPSSNFGTQTYTCNVDHKPSNTKVDKTVERKCCVECPPCPAPPVAGPSVFLFPPKPKDTLMISRTPEVTCVVVDVSHEDPEVQFNWYVDGVEVHNAKTKPREEQFNSTFRVVSVLTVVHQDWLNGKEYKCKVSNKGLPAPIEKTISKTKGQPREPQVYTLPPSREEMTKNQVSLTCLVKGFYPSDIAVEWESNGQPENNYKTTPPMLDSDGSFFLYSKLTVDKSRWQQGNVFSCSVMHEALHNHYTQKSLSLSPGK
- relative binding level (%) at 10 ug/ml (FcRn): 99.4%
- relative binding level (%) at 10 ug/ml (FcγRI [1]): 179%
- relative binding level (%) at 10 ug/ml (FcγRIIIa V158): 3.85%
- relative binding level (%) at 10 ug/ml (FcγRI [2]): 2.43%

More lines, now with the values ahead:

- relative binding level (%) at 10 ug/ml (FcRn): 66.5%
- relative binding level (%) at 10 ug/ml (FcγRI [1]): 14.8%
- relative binding level (%) at 10 ug/ml (FcγRIIIa V158): 3.41%
- relative binding level (%) at 10 ug/ml (FcγRI [2]): 70.6%
Molecule: anti-CD20 antibody (ocrelizumab variable domains) with IgG4 SP constant region

- relative binding level (%) at 10 ug/ml (FcRn): 95.9%
- relative binding level (%) at 10 ug/ml (FcγRI [1]): -0.34%
- relative binding level (%) at 10 ug/ml (FcγRIIIa V158): 1.36%
- relative binding level (%) at 10 ug/ml (FcγRI [2]): 1.74%
Molecule: anti-CD20 antibody (ocrelizumab variable domains) with IgG1 LALAPG constant region

- EC50 potency, proliferation of OCI-AML5 cells (Cell Titer Glo, 7 days) (Flt3 receptor (human)): 2.3 pM
Molecule: gCDX-301 (from UniProt P49771 27-179) (ligand)

— patent US20260201003A1
